Data set [1] has as its target T1, ETS1Δ335 (UniProt P14921 335-441).
T1 sequence: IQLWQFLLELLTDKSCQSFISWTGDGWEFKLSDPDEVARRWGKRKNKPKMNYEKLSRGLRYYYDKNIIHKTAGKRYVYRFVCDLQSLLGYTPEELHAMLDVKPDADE
In words: EMSA. (In general: In EMSA bound probe runs differently from free probe, usually more slowly.)

The target in data set [2] is T2, ETS1Δ335 R394A/Y395A (UniProt P14921 335-441, R394A;Y395A).
T2 sequence: T1 sequence with R60A, Y61A
In words: EMSA.

Data set [3] deals with the molecule itself. In words: cross-linking.
For data set [4], the target named is T3, ETS1Δ335 L337A (UniProt P14921 335-441, L337A).
T3 sequence: T1 sequence with L3A
Description: EMSA.

This note sets out measurements from doi:10.1101/070185 (bioRxiv, 2016).

By Kd is commonly meant the equilibrium constant for the complex coming apart. One may read the stoichiometry N as the number of molecules, sites or subunits per partner or assembly.

Changes are numbered by the printed parent chain. Names and notes keep the numbering of the source.

B1: p53 (dsDNA)
DNA 1: TTAGGAAGGCTTTCCGTA
DNA 2: TACGGAAAGCCTTCCTAA
Turning to B1, the binding result in data set [1] and in data set [2] was “no binding” throughout.

B2: MMP3 M1 (dsDNA)
DNA 1: ACAAAAAGCACTTCCTGG
DNA 2: CCAGGAAGTGCTTTTTGT
Consider B2, for which the Kd in data set [1] is 13.5 ± 1.9 nM; in data set [2] it was 105 ± 5.2 nM.

B3: ETS1Δ335 R378C (domain or fragment, UniProt P14921 335-441, looked up)
chain: T1 sequence with R44C
For the molecule B3, the “stoichiometry N” value in data set [3] came to 2.

B4: ETS1Δ335 L337A R378C (domain or fragment, UniProt P14921 335-441, looked up)
chain: T1 sequence with L3A, R44C
As for B4, the “stoichiometry N” value in data set [3] came to 2.

B5: ETS1Δ335 R378C/R394A/Y395A (domain or fragment, UniProt P14921 335-441, looked up)
chain: T1 sequence with R44C, R60A, Y61A
For the molecule B5, in data set [3], the “stoichiometry N” value was found to be 2.

B6: MMP3 WT (dsDNA)
DNA 1: ACAGGAAGCACTTCCTGG
DNA 2: CCAGGAAGTGCTTCCTGT
Consider B6, for which the binding result in data set [4] is on record as “no binding”. Also, the equilibrium dissociation constant (Kd) in data set [1] was determined as 1.2 ± 0.2 nM; in data set [2] it was 16.1 ± 1.3 nM.

B7: MMP3 M2 (dsDNA)
DNA 1: ACAGGAAGCACTTTTTGG
DNA 2: CCAAAAAGTGCTTCCTGT
For B7, the equilibrium dissociation constant (Kd) in data set [1] was 6.37 ± 0.92 nM; in data set [2] it was 7.33 ± 0.55 nM.
